Consider 12 sequences from the supplement of paper PMC9170038.

The series concerns MS2 coat protein. Nature of the series: apparent KD of MS2 coat protein; designed switch direction (-1 OFF switch, 1 ON switch): -1; higher = weaker reporter binding. In outline:
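Designed RNA switches with common flanks were transcribed on Illumina chips by stalled E. coli RNA polymerase and titrated with SNAP-549-labelled MS2 coat protein, from 0.7 or 1.5 nM doubling to 3 µM, in Tris-HCl pH 7.5 buffer with KCl, MgCl2, BSA, DTT, tRNA and Tween-20. Steps lasted 0.8–1.5 h (lowest) to 10–20 min (highest). Titrations ran without input, with 200 uM small-molecule ligand, or with an oligonucleotide input. Normalised cluster fluorescence was curve-fitted, and apparent KD is the per-design median over clusters.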

Where [1] appears, read: input ligand: microRNA oligo, concentration not stated.
Where [2] appears, read: Eterna round: R95, input ligand: FMN 200 uM.
[3] abbreviates: Eterna round: R95, input ligand: microRNA oligo, concentration not stated.
Setting [4] is: Eterna round: R95, input ligand: none.

On to “UUAAUUAAUUAAUUAUAAGAUCAACAUGAGGAUCACCCAUGUGAGGAUAUCAGCUCGUGUAGAGCUGAGAAGGCACAAAUAAUU [ExNG3/16-B3] (Eterna round: R96, puzzle: Exclusion NG 3)”, for which the “apparent KD of MS2 coat protein” value amounted to 86.5 nM (input ligand: FMN 200 uM), 27.9 nM under setting [1] and 51.5 nM (input ligand: none).
In the case of “UUACCAUGCCGCCUAAUAGCUUUUUGCUCGUCUUAUAUUACAUGAGGAUCACCCAUGUAAAACAUGUGGCGUGACCU [JL ViennaUCT Maridi mod 1] (puzzle: Sensor v3, turn-off variant 2)”, the “apparent KD of MS2 coat protein” value reads like this: under setting [2], 79.8 nM; under setting [3], 112 nM; under setting [4], 87.3 nM.
“UUAGAUAGGUCAGGAUAUCGAUGAUUGAAUAGUAUGAUUUACAUGAGGAUCACCCAUGUUAAAUACGAGAAGGGACGUUAGAUU [JR_ExcNG2_Sub021] (Eterna round: R96, puzzle: Exclusion NG 2)”: the “apparent KD of MS2 coat protein” value came to 17.9 nM (input ligand: FMN 200 uM), 17.9 nM under setting [1] and 21.3 nM (input ligand: none).
As to “UUAGAUUGAGGAUAUUUGGAUCCGUACAUGAGGAUCACCCAUGUGUGUAGCACAUUCAACGGAGAAGGCGGUUUCU [Eternabot (L1) Solution 73] (Eterna round: R97, puzzle: Exclusion 5)”, the “apparent KD of MS2 coat protein” value is, setting by setting: (input ligand: FMN 200 uM) 143 nM; (input ligand: none) 256 nM.
Regarding “UUAGGCUGAAGAUCAAUUAAUUAACAUGAGGAUCACCCAUGUAAGGAUAUCAGCUCGUUUAGAGCUGAGAAGGUACAUGCAGCC [ExNG3/18-A2] (Eterna round: R96, puzzle: Exclusion NG 3)”, the “apparent KD of MS2 coat protein” value (input ligand: FMN 200 uM) amounted to 351 nM, the “apparent KD of MS2 coat protein” value under setting [1] was found to be 121 nM and the “apparent KD of MS2 coat protein” value (input ligand: none) was determined as 118 nM.
With “UUAGUUUUGCAAGGAUAUGUUUAUUUAUAGUUGCCUCUUACAUGAGGAUCACCCAUGUUUUACUUACAGAAGGUGCAAUGAUUU [JR_ExcNG2_Sub034] (Eterna round: R96, puzzle: Exclusion NG 2)”, the “apparent KD of MS2 coat protein” value under setting [1] came out at 138 nM.
For the sequence “UUAUACGGUGAGGAUAUCUUCACUAAAGUGUGAAGAGAAGGCGCUACAUGAGGAUCACCCAUGUCUAUGGGCAG [Ex-6 Malc#17] (Eterna round: R96, puzzle: Exclusion 6)”, the “apparent KD of MS2 coat protein” value under setting [1] is 331 nM.
As to “UUAUACGGUGAGGAUAUCUUCACUAAAGUGUGAAGAGAAGGCGCUACAUGAGGAUCACCCAUGUCUAUGGGCAG [Ex-6 Malc#17] (puzzle: Exclusion 6)”, the “apparent KD of MS2 coat protein” value worked out at 118 nM under setting [2], 187 nM under setting [3] and 156 nM under setting [4].
As for “UUAUAUAAUGUGAGGAUAUGCUGGUCGAUAGAUCAGCAGAAGGCACAUGAGGAUCACCCAUGUAGUAAAUUUUA [Mat - Exclusion 4 - JL Mod - D13] (puzzle: Brourd's mod of Exclusion 4)”, the “apparent KD of MS2 coat protein” value was 25.5 nM under setting [2], 16.4 nM under setting [3] and 16.2 nM under setting [4].
In the case of “UUAUAUAGAGUGAGGAUAUGCUGGUCCUUGGAUCAGCAGAAGGCACAUGAGGAUCACCCAUGUAAUAUAAUAUU [Mat - Exclusion 4 - JL Mod - D38] (puzzle: Brourd's mod of Exclusion 4)”, under setting [3], the “apparent KD of MS2 coat protein” value was determined as 21.1 nM.
Regarding “UUAUAUAGUAUAGGAUAUUAGAGGAGAAUGGUGAUAGAGACAUGAGGAUCACCCAUGUGAGGAGAUAAGAAGGGUAAUAAUUAU [AK ExNG2-V2-3] (Eterna round: R96, puzzle: Exclusion NG 2)”, the “apparent KD of MS2 coat protein” value by setting is: (input ligand: FMN 200 uM) 326 nM; under setting [1], 176 nM; (input ligand: none) 351 nM.
In the case of “UUAUUAAGUGUGAGGAUAUGCUGGUCCUUGGAUCAGCAGAAGGCACAUGAGGAUCACCCAUGUAAUAUAUUUAU [JL bmx4 3.09] (puzzle: Brourd's mod of Exclusion 4)”, the “apparent KD of MS2 coat protein” value under setting [3] is 75.8 nM.
